According to patent publication EP1506972A1 (Genentech Inc., dated 2005):
Numbering of substitutions follows the chain as printed.

How the values were obtained:
Test in all cases: competitive phage ELISA, soluble IGFBP-1 vs coated IGFBP-1
[1] = biological target: T1, IGF-I V70A (single mutant of G1S-A70V) displayed on phage (human; bacteriophage M13)
T1 construct: not shown: Display carrier: M13 gene III protein fragment (residues 249-406) and its junction to residue 70

[2] = biological target: T2, IGF-I E3A (G1S-A70V background) displayed on phage (human; bacteriophage M13)
T2 construct: not shown: Display carrier: M13 gene III protein fragment (residues 249-406) and its junction to Val70

[3] = biological target: T3, IGF-I S51A (G1S-A70V background) displayed on phage (human; bacteriophage M13)
T3 construct: not shown: Display carrier: M13 gene III protein fragment (residues 249-406) and the junction to it
T3 chain: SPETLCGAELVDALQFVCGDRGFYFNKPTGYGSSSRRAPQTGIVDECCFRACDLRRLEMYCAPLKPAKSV

[4] = biological target: T4, IGF-I Q15A (G1S-A70V background) displayed on phage (human; bacteriophage M13)
T4 construct: not shown: M13 gene III fragment (residues 249-406, display carrier) and the IGF-g3 junction
T4 chain: T3 chain with Q15A, A51S

[5] = biological target: T5, IGF-I G1S-A70V displayed on phage (fused to M13 gene III protein residues 249-406) (human; bacteriophage M13)
T5 construct: Monovalent display on M13 phagemid particles; template of the alanine scan; also called G1S-A70V IGF-I; wild-type-like IGF-I variant; not shown: Display carrier: M13 gene III protein fragment (residues 249-406) and the junction to it

[6] = biological target: T6, wild-type IGF-I displayed on phage (double mutation restoring wild type) (human; bacteriophage M13, UniProt P69168 267-424)
T6 construct: range 249-406; also called IGF-I WT; WT

[7] = biological target: T7, IGF-I S69A (G1S-A70V background) displayed on phage (human; bacteriophage M13)
T7 construct: not shown: Display carrier: M13 gene III protein fragment (residues 249-406) and its junction to Val70

[8] = biological target: T8, IGF-I T4A (G1S-A70V background) displayed on phage (human; bacteriophage M13)
T8 construct: not shown: The display carrier: M13 gene III protein fragment (residues 249-406) and the junction to it
T8 chain: T3 chain with T4A, A51S

[9] = biological target: T9, IGF-I P2A (G1S-A70V background) displayed on phage (human; bacteriophage M13)
T9 construct: range 249-406

[10] = biological target: T10, IGF-I R50A (G1S-A70V background) displayed on phage (human; bacteriophage M13)
T10 construct: not shown: Display carrier: M13 gene III protein fragment (residues 249-406) and the junction to it
T10 chain: T3 chain with R50A, A51S

[11] = biological target: T11, IGF-I S33A (G1S-A70V background) displayed on phage (human; bacteriophage M13)
T11 construct: not shown: Display carrier: M13 gene III protein fragment (residues 249-406) and the junction to it
T11 chain: T3 chain with S33A, A51S

[12] = biological target: T12, IGF-I R56A (G1S-A70V background) displayed on phage (human; bacteriophage M13)
T12 construct: not shown: M13 gene III fragment (residues 249-406), the display partner, and its junction to IGF-I
T12 chain: T3 chain with A51S, R56A

[13] = biological target: T13, IGF-I S1G (single mutant of G1S-A70V) displayed on phage (human; bacteriophage M13, UniProt P05019 49-117)
T13 construct: not shown: Display carrier: M13 gene III protein fragment (residues 249-406) and its junction to Val70

[14] = biological target: T14, IGF-I Y60A (G1S-A70V background) displayed on phage (human; bacteriophage M13)
T14 construct: not shown: M13 gene III fragment (residues 249-406), the display partner, and its junction to IGF-I
T14 chain: T3 chain with A51S, Y60A

[15] = biological target: T15, IGF-I P63A (G1S-A70V background) displayed on phage (human; bacteriophage M13)
T15 construct: not shown: M13 gene III fragment (residues 249-406), the display partner, and its junction to IGF-I
T15 chain: T3 chain with A51S, P63A

[16] = biological target: T16, IGF-I L10A (G1S-A70V background) displayed on phage (human; bacteriophage M13)
T16 construct: not shown: M13 gene III fragment (residues 249-406, display carrier) and the IGF-g3 junction
T16 chain: T3 chain with L10A, A51S

[17] = biological target: T17, IGF-I L5A (G1S-A70V background) displayed on phage (human; bacteriophage M13)
T17 construct: not shown: The display carrier: M13 gene III protein fragment (residues 249-406) and the junction to it
T17 chain: T3 chain with L5A, A51S

[18] = biological target: T18, IGF-I K27A (G1S-A70V background) displayed on phage (human; bacteriophage M13)
T18 construct: not shown: Display carrier: M13 gene III protein fragment (residues 249-406) and the junction to it
T18 chain: T3 chain with K27A, A51S

relative IC50 (IC50mut/IC50 G1S-A70V) [1]: 2.3 fold
relative IC50 (IC50mut/IC50 G1S-A70V) [2]: 33.9 fold
relative IC50 (IC50mut/IC50 G1S-A70V) [3]: 1.6 fold
relative IC50 (IC50mut/IC50 G1S-A70V) [4]: 1.7 fold
relative IC50 (IC50mut/IC50 G1S-A70V) [5]: 1 fold
relative IC50 (IC50mut/IC50 G1S-A70V) [6]: 1 fold
relative IC50 (IC50mut/IC50 G1S-A70V) [7]: 1.6 fold
relative IC50 (IC50mut/IC50 G1S-A70V) [8]: 2.4 fold
relative IC50 (IC50mut/IC50 G1S-A70V) [9]: 1.3 fold
relative IC50 (IC50mut/IC50 G1S-A70V) [10]: 2 fold
relative IC50 (IC50mut/IC50 G1S-A70V) [11]: 1.1 fold
relative IC50 (IC50mut/IC50 G1S-A70V) [12]: 1.6 fold
relative IC50 (IC50mut/IC50 G1S-A70V) [13]: 1.4 fold
relative IC50 (IC50mut/IC50 G1S-A70V) [14]: 0.8 fold
relative IC50 (IC50mut/IC50 G1S-A70V) [15]: > 100 fold
relative IC50 (IC50mut/IC50 G1S-A70V) [16]: 37.9 fold
relative IC50 (IC50mut/IC50 G1S-A70V) [17]: 6.7 fold
relative IC50 (IC50mut/IC50 G1S-A70V) [18]: 1.6 fold
B1: human IGFBP-1 (other, UniProt P08833 26-259, looked up)
chain: APWQCAPCSAEKLALCPPVSASCSEVTRSAGCGCCPMCALPLGAACGVATARCARGLSCRALPGEQQPLHALTRGQGACVQESDASAPHAAEAGSPESPESTEITEEELLDNFHLMAPSEEDHSILWDAISTYDGSKALHVTNIKKWKEPCRIELYRVVESLAKAQETSGEEISKFYLPNCNKNGFYHSRQCETSMDGEAGLCWCVYPWNGKRIPGSPEIRGDPNCQIYFNVQN
notes: Secreted recombinant protein
